Test results as given in patent US20170240635A1 (AGENCY FOR SCIENCE TECHNOLOGY AND RESEARCH, published 2017).
Numbering of substitutions follows the chain as printed.

B1: G2 (antibody, IgG4, V domains shown)
VH: QVQLVESGGGVVQPGRSLRLSCAASGFTFSSYGMHWVRQAPGKGLEWVAVISYDGSNKYYADSVKGRFTISRDNSKNTLYLQMNSLRAEDTAVYYCASDLGAGPYYYGMDVWGQGTTVTVSS
VL: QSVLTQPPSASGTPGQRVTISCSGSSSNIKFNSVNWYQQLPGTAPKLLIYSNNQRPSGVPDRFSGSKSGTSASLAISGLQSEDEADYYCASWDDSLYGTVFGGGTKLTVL
notes: also called anti-PD-1 antibody clone G2 (human IgG4)
B2: C4 (antibody, IgG4, V domains shown)
VH: B1 VH with M109L
VL: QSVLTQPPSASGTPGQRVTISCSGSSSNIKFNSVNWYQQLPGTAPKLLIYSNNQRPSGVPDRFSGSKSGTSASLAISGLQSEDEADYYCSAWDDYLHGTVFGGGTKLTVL
notes: also called anti-PD-1 antibody clone C4 (human IgG4)
B3: H9 (antibody, IgG4, V domains shown)
VH: B1 VH
VL: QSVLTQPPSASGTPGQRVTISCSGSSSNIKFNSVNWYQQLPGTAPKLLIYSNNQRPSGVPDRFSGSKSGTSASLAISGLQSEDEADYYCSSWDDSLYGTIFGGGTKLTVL
notes: also called anti-PD-1 antibody clone H9 (human IgG4)
B4: D4 (antibody, IgG4, V domains shown)
VH: B1 VH
VL: QSVLTQPPSASGTPGQRVTISCSGSSSNIKFNSVNWYQQLPGTAPKLLIYSNNQRPSGVPDRFSGSKSGTSASLAISGLQSEDEADYYCASWDDYVRGTMFGGGTKLTVL
notes: also called anti-PD-1 antibody clone D4 (human IgG4)
B5: E1 (antibody, IgG4, V domains shown)
VH: B1 VH
VL: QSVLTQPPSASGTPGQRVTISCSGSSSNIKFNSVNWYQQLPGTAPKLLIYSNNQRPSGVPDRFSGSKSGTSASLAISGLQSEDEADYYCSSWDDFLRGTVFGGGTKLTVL
notes: also called anti-PD-1 antibody clone E1 (human IgG4)
B6: B6 (antibody, IgG4, V domains shown)
VH: B1 VH with L100Y
VL: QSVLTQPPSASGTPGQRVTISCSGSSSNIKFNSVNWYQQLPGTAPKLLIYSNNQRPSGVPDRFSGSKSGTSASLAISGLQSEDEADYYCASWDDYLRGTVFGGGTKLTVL
notes: also called anti-PD-1 antibody clone B6 (human IgG4)
B7: H4 (antibody, IgG4, V domains shown)
VH: B1 VH with A102S, P104Y, Y106L
VL: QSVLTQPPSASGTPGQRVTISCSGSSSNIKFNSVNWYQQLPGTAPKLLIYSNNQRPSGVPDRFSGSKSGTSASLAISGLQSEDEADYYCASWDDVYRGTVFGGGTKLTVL
notes: also called anti-PD-1 antibody clone H4 (human IgG4)
B8: F2 (antibody, IgG4, V domains shown)
VH: B1 VH
VL: B4 VL with A90S, Y95D, V96A, M100I
notes: also called anti-PD-1 antibody clone F2 (human IgG4)
B9: G1 (antibody, IgG4, V domains shown)
VH: B1 VH
VL: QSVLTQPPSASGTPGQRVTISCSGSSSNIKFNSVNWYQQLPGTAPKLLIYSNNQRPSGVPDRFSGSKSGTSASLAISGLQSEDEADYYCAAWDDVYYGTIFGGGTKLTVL
notes: also called anti-PD-1 antibody clone G1 (human IgG4)
B10: G10 (antibody, IgG4, V domains shown)
VH: B1 VH with L100Y
VL: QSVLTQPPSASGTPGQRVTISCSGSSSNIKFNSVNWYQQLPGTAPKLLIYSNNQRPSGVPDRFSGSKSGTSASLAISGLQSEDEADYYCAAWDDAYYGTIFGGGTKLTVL
notes: also called anti-PD-1 antibody clone G10 (human IgG4)

Each binder was assayed against T1, PD-1 on exhausted human T cells (human, UniProt Q15116 25-288) (assay: flow cytometry (MFI); IgG4 on human T cells activated 7 days with allogeneic DCs, fluorescent secondary antibody).
T1 construct: whole, on cells; T cells exhausted by 7 days of culture with allogeneic monocyte-derived dendritic cells
T1 sequence (Q15116 25-288): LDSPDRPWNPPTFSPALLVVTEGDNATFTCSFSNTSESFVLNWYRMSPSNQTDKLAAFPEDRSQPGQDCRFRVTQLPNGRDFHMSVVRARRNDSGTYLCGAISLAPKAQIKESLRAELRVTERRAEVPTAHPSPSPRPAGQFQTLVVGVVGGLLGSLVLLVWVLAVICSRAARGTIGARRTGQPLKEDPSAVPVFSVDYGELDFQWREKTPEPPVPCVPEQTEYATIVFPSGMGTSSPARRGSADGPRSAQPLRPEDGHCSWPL
Method: 50,000 T cells isolated from a healthy donor were incubated in the presence of 5,000 monocyte-derived DCs from another donor for 7 days at 37° C. Antibodies, expressed as IgG4, were incubated with such activated T cells for 30 minutes in PBS. After a wash in PBS, a fluorescent labelled secondary antibody was added for 30 minutes and then washed in PBS. Cells were resuspended in FACS buffer and binding of the antibody to the cells was monitored by flow cytometry (FIGS. 6 and 7).
B1 gave an EC50 of 780 pM.
Work on B2 yielded an EC50 of 281 pM.
For B3, the EC50 was 375 pM.
In the case of B4, the EC50 is reported as 318 pM.
B5 gave an EC50 of 542 pM.
Work on B6 yielded an EC50 of 158 pM.
For B7, the EC50 was 189 pM.
Work on B8 yielded an EC50 of 446 pM.
B9 gave an EC50 of 738 pM.
Work on B10 yielded an EC50 of 532 pM.
